Test results from patent US20200165324A1.

Columns and labels:
[1] = target: Env of the 12-virus indicator panel; test: cell-based or functional assay
[2] = target: Env of the 117-virus panel (117 cross-clade virus panel); test: cell-based or functional assay
[3] = target: stabilized BG505 SOSIP construct MD39 (HIV isolate BG505); test: competition ELISA on MD39 vs PG9
[4] = target: stabilized BG505 SOSIP construct MD39 (HIV isolate BG505); test: competition ELISA on MD39 vs b12
[5] = target: stabilized BG505 SOSIP construct MD39 (HIV isolate BG505); test: competition ELISA on MD39 vs Self
[6] = target: stabilized BG505 SOSIP construct MD39 (HIV isolate BG505); test: competition ELISA on MD39 vs 12A12
[7] = target: stabilized BG505 SOSIP construct MD39 (HIV isolate BG505); test: competition ELISA on MD39 vs 35022
[8] = target: stabilized BG505 SOSIP construct MD39 (HIV isolate BG505); test: competition ELISA on MD39 vs CH103
[9] = target: stabilized BG505 SOSIP construct MD39 (HIV isolate BG505); test: competition ELISA on MD39 vs VRC01
[10] = target: stabilized BG505 SOSIP construct MD39 (HIV isolate BG505); test: competition ELISA on MD39 vs PGT121
[11] = target: stabilized BG505 SOSIP construct MD39 (HIV isolate BG505); test: competition ELISA on MD39 vs PGT128
[12] = target: stabilized BG505 SOSIP construct MD39 (HIV isolate BG505); test: competition ELISA on MD39 vs PGT151
[13] = target: stabilized BG505 SOSIP construct MD39 (HIV isolate BG505); test: competition ELISA on MD39 vs 3BNC117
[14] = target: stabilized BG505 SOSIP construct MD39 (HIV isolate BG505); test: competition ELISA on MD39 vs PGDM1400
[15] = target: gp120 (isolate 92BR020) (HIV-1 isolate 92BR020); test: ELISA on gp120 (isolate 92BR020), buffer pH 6
[16] = target: gp120 (isolate 92BR020) (HIV-1 isolate 92BR020); test: ELISA on gp120 (isolate 92BR020), buffer pH 5.5

B1: germline PG9 HC (NC-Cow1 VH CDR3) + mature PG9 LC (antibody)
VH: QVQLVESGGGVVQPGRSLRLSCAASGFTFSSYGMHWVRQAPGKGLEWVAVISYDGSNKYYADSVKGRFTISRDNSKNTLYLQMNSLRAEDTAVYYCITAHQKTNKKECPEDYTYNPRCPQQYGWSDCDCMGDRFGGYCRQDGCSNYIHRSTYEWYVSAWGKGTTVTVSS
VL: QSALTQPASVSGSPGQSITISCNGTSNDVGGYESVSWYQQHPGKAPKVVIYDVSKRPSGVSNRFSGSKSGNTASLTISGLQAEDEGDYYCKSLTSTRRRVFGTGTKLTVL
With B1 the median IC50 of neutralization on the 12-virus indicator panel [1] was 0.054 µg/mL and the neutralization breadth on the 12-virus indicator panel [1] was 88%.

B2: NC-Cow1 (antibody)
VH: QVQLRESGPSLMKPSQTLSLTCTVSGSSLNDKSVGWVRQAPGKALQWLGSVDTSGNTDYNPGLKSRLSITKDNSKSRISLTVTGMTTEDSATYYCITAHQKTNKKECPEDYTYNPRCPQQYGWSDCDCMGDRFGGYCRQDGCSNYIHRSTYEWYVSAWGQGLLVTVSS
VL: SYELTQPSSVSGSLGQRVSVTCSGSSSNVGNGYVSWYQLIPGSAPRTIIYGDTSRASGVPERFSGSRSGNTATLTISSLQAEDEADFFCASPDDSSSNAVFGSGTTLTVL
B2 was tested, and the IC50, pseudovirus neutralization (BG505 D474A) was 0.009 µg/mL, the IC50, pseudovirus neutralization (BG505 N262A) was 0.014 µg/mL and the IC50, pseudovirus neutralization (BG505 N276A) was 0.011 µg/mL. For the same binder, the IC50, pseudovirus neutralization (JR-CSF D279A) was 1.02 µg/mL, the IC50, pseudovirus neutralization (JR-CSF D474A) was 0.744 µg/mL and the IC50, pseudovirus neutralization (JR-CSF K282A) was > 50 µg/mL. For the same binder, the IC50, pseudovirus neutralization (JR-CSF M373A) was 2.52 µg/mL, the IC50, pseudovirus neutralization (JR-CSF P369A) was 1.24 µg/mL and the IC50, pseudovirus neutralization (JR-CSF V372A) was > 50 µg/mL. For the same binder, the median IC50 of neutralization on the 117-virus panel [2] was 0.028 µg/mL, the neutralization breadth on the 117-virus panel (pseudovirus, TZM-bl cells) [2] was 72% and the median IC50 of neutralization on the 12-virus indicator panel [1] was 0.007 µg/mL. It also gave a neutralization breadth on the 12-virus indicator panel [1] of 100%.

B3: NC-Cow7 (antibody)
VH: KVQLRESGPSLVKPFETLSLTCTGSGFSLSDKAAGWVRQAPGKAPEWLGSIDTGGNTGYNPGLKYRLSITKDNSKSQVSLSVSSMTSEDSATYYCTTVHQKAYKKVCPDDYSSNPDCVRLYGWSHCDCMRDSFGGWCRADGCSSTVEIGPYEWYVNAWGQGLLVTVSS
VL: QAVLTQPSSVSGSLGQRVSITCSGSSSNVGNGYVSWYQLIPGSAPRSLIYGDTSRASGVPDRFSGSRSGNTATLTISSLQAEDEADYFCASPEDSSSNGVFGSGTTLTVL
B3 showed a competition value [3] of 8, a competition value [4] of 9 and a competition value [5] of 90. The competition value [6] was 92, the competition value [7] was 5 and the competition value [8] was 35. For the same binder, the competition value [9] was 87, the competition value [10] was 23 and the competition value [11] was 31. It also gave a competition value [12] of 20, a competition value [13] of 90 and a competition value [14] of 12.

B4: NC-Cow5 (antibody)
VH: QVQLQESGPSLVKPSQTLSLTCMVSGFSLNDKAVGWVRQAPGKALEWLGSIDAGGSTGYNPGLKSRLSISKDNSKNQVSLSVSSVTTEDSATYYCGTVHQRTQPKQTCPNGYSDDSALRYYSRCSDRDCWRCTGTTYYDTCQCSSYTYIHTYELYVDAWGQGLLVTVSS
VL: QDVLTQPSSVSGSLGQRVSITCSGSSSNVGNGYVSWYQLIPGSAPRTLIYGDTSRASGVPDRFSGSRSGNTATLTISSLQAEDEADYFCASPEDSSSNAVFGSGTTLTVL
B4 gave a competition value [3] of 21, a competition value [4] of 23 and a competition value [5] of 37. For the same binder, the competition value [6] was 95, the competition value [7] was 14 and the competition value [8] was 38. It also gave a competition value [9] of 95, a competition value [10] of 21 and a competition value [11] of 71. For the same binder, the competition value [12] was 2, the competition value [13] was 94 and the competition value [14] was 3.

B5: NC-Cow4 (antibody)
VH: KVQLRESGPSLVKPSQTLSLTCMVSGFSLNDEAVGWVRQAPGKALEWLGSIDAGGSTGYNPGLKSRLSISKDNSKNQVSLSVSSVTTEDSATYYCGTVHQRTQPKQTCPNGYSDDSALRYYSRCSDRDCWRCTGTTYYDTCQCSSYTYIHTYELYVDAWGQGLLVTVSS
VL: QAVLTQPSSVSGSLGQRVSITCSGSSSNVGNGYVSWYQLIPGSAPRTLIYGDTSRASGVPDRFSGSRSGNTATLTISSLQAEDEADYFCASPEDSSSNAVFGSGTTLTVL
Binder B5 has a competition value [3] of 7, a competition value [4] of 29 and a competition value [5] of 84. It also gave a competition value [6] of 95, a competition value [7] of 18 and a competition value [8] of 13. It also gave a competition value [9] of 94, a competition value [10] of -11 and a competition value [11] of 35. For the same binder, the competition value [12] was 20, the competition value [13] was 95 and the competition value [14] was 22.

B6: NC-Cow2 (antibody)
VH: KVQLRESGPSLVKPSQTLSLTCMVSGSSLSDKAVGWVRQAPGKALEWLGIISAGGNRGYNSGLRSRLTISKDNSKNEVSLRVRSVTTEDSATYFCGTVHQKTQRKPICPDGYSDDSTLRYYSRCSDRDCWRCTGTTYYDTCQCGTYTWIDTHELHVDAWGQGLLVTVSS
VL: QAVLNQPSSVSGSLGQRVSITCSGSSSNVGNGYVSWYQLIPGSAPRTLIYGDTSRASGVPDRFSGSRSGNTATLTISSLQAEDEADYFCASAEDSSSNAVFGSGTTLTVL
With B6 the competition value [3] was 4, the competition value [4] was 0 and the competition value [5] was 91. It also gave a competition value [6] of 94, a competition value [7] of 11 and a competition value [8] of 11. The competition value [9] was 93, the competition value [10] was 27 and the competition value [11] was 57. It also gave a competition value [12] of 11, a competition value [13] of 93 and a competition value [14] of 18.

B7: PGV04 (antibody, from a related filing, V domains shown)
VH: QVQLVQSGSGVKKPGASVRVSCWTSEDIFERTELIHWVRQAPGQGLEWIGWVKTVTGAVNFGSPDFRQRVSLTRDRDLFTAHMDIRGLTQGDTATYFCARQKFYTGGQGWYFDLWGRGTLIVVSS
VL: EIVLTQSPGTLSLSPGETASLSCTAASYGHMTWYQKKPGQPPKLLIFATSKRASGIPDRFSGSQFGKQYTLTITRMEPEDFARYYCQQLEFFGQGTRLEIR
For B7, the EC50 (read off the curve) [15] was 0.2 µg/mL and the EC50 (read off the curve) [16] was 0.2 µg/mL.
